From patent US20020147326A1 (GlaxoSmithKline, published 2002)

Key:
CTLA4-Ig [1] = target: T1, CTLA4-Ig (human, UniProt P16410 36-161); experiment: isothermal titration calorimetry, in solution, 37° C.
T1 construct: also called CTLA4-Fc; not shown: human IgG1 heavy chain Fc region (hinge, CH2, CH3) of vector COSFcLink

CTLA4-Ig [2] = target: T1, CTLA4-Ig; experiment: isothermal titration calorimetry, in solution, 44° C.
[3] = target: T2, human CD28 expressed on the cell surface (human, UniProt P10747 19-220); experiment: flow cytometry on PCD28.1.s2.1 cells expressing human CD28
T2 construct: whole, on cells; also called CD28 positive cells; PCD28.1.s2.1 cells
Description: Non-adherent CD28 expressing cells (PCD28.1.s2.1) were used for this assay format. […] All incubations were carried out on ice. […] After washing twice in binding buffer, bound fusion proteins were detected with a 1:2000 dilution of a goat anti-human polyclonal antibody labeled with FITC (Flourescein isothiocyanate, Southern Biotech).

CTLA4-Ig [4] = target: T1, CTLA4-Ig; experiment: isothermal titration calorimetry, Kd at 37° C., measured at 37° C.
CTLA4-Ig [5] = target: T1, CTLA4-Ig; experiment: isothermal titration calorimetry at 44° C., Kd corrected to 37° C. by the van't Hoff equation

T1 sequence (P16410 other isoform, or with tags, fused parts or gaps): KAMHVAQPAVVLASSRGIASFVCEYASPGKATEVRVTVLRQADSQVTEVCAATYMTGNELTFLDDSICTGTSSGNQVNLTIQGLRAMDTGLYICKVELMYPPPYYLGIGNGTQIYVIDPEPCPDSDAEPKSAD

B1: CD86-Ig (Fc fusion)
chain: APLKIQAYFNETADLPCQFANSQNQSLSELVVFWQDQENLVLNEVYLGKEKFDSVHSKYMGRTSFDSDSWTLRLHNLQIKDKGLYQCIIHHKKPTGMIRIHQMNSELSVLANFSQPEIVPISNITENVYINLTCSSIHGYPEPKKMSVLLRTKNSTIEYDGIMQKSQDNVTELYDVSISLSVSFPDVTSNMTIFCILETDKTRLLSSPFSIELEDPQPPPDHEPKSADKTHTCPPCP
notes: Mature N-terminus LKIQ-, junction PPPDHepksa; also called B7.2-Ig; monomeric CD86-Ig; not shown: human IgG1 heavy chain Fc region (hinge, CH2, CH3) of vector COSFcLink
- Kd (CTLA4-Ig [1]): 38 nM
- Molar Ratio (CTLA4-Ig per construct) (CTLA4-Ig [1]): 0.8
- ΔH (CTLA4-Ig [1]): -33 kcal/mol
- Kd (CTLA4-Ig [2]): 71 nM
- Molar Ratio (CTLA4-Ig per construct) (CTLA4-Ig [2]): 0.79
- ΔH (CTLA4-Ig [2]): -34 kcal/mol
- binding result [3]: no binding
- Kd (CTLA4-Ig [4]): 40 nM
- Kd (CTLA4-Ig [5]): 22 nM
